{
  "source": "patent US20150110774A1",
  "about": "“S100 PROTEIN INHIBITORS FOR TREATING LEUKEMIA” (UNIVERSITE LAVAL, priority 2004, published 2015)",
  "molecules": {"B1": {"name": "S100A9: recombinant S100 calcium-binding protein, Myeloid Related Protein (MRP) (protein, UniProt P06702 1-114, looked up)", "Protein S100-A9": "MTCKMSQLERNIETIINTFHQYSVKLGHPDTLNQGEFKELVRKDLQNFLKKENKNEKVIEHIMEDLDTNADKQLSFEEFIMLMARLTWASHEKMHEGDEGPGHHHKPGLGEGTP"}, "B2": {"name": "S100A8: recombinant S100 calcium-binding protein, Myeloid Related Protein (MRP) (protein, UniProt P05109 1-93, looked up)", "Protein S100-A8": "MLTELEKALNSIIDVYHKYSLIKGNFHAVYRDDLKKLLETECPQYIRKKGADVWFKELDINTDGAVNFQEFLILVIKMGVAAHKKSHEESHKE"}, "B3": {"name": "S100A8/A9: heterodimer of S100A8 and S100A9 (protein, UniProt P05109 1-93; P06702 1-114, looked up)", "Protein S100-A8": "MLTELEKALNSIIDVYHKYSLIKGNFHAVYRDDLKKLLETECPQYIRKKGADVWFKELDINTDGAVNFQEFLILVIKMGVAAHKKSHEESHKE", "Protein S100-A9": "MTCKMSQLERNIETIINTFHQYSVKLGHPDTLNQGEFKELVRKDLQNFLKKENKNEKVIEHIMEDLDTNADKQLSFEEFIMLMARLTWASHEKMHEGDEGPGHHHKPGLGEGTP"}},
  "key": {"advanced leukemia": {"tested_on": "advanced leukemia", "conditions": "clinical studies; cited from earlier work"}, "[1]": {"tested_on": "bone marrow cells from AML and CML patients", "assay": "AML/CML patient bone marrow cell proliferation (colony assay)", "type": "cell-based, human", "conditions": "FIG. 4", "description": "PBMC and BM (5×10^4 cells) were incubated at 37° C. in methylcellulose-based media containing 1% methylcellulose in Iscove MDM, 30% foetal bovine serum, 1% BSA, 10^−4 M 2-mercaptoethanol and 2 mM of L-glutamine supplemented (+CSF) or not (−CSF) by 50 ng/mL of rhSCF, 10 ng/mL of rhIL-3, and 10 ng/mL of rhGM-CSF to support optimal growth of CFU-Granulocyte Macrophage (CFU-GM) CFU-Granulocyte (CFU-G) and CFU-Macrophage (CFU-M). Different concentrations of S100A12, S100A8, and/or S100A9 were also added to the cells. After 15 days, colony-forming units were counted.\nBone marrow cells were obtained by aspirates from a CML patient. (A) The cells were cultured for 14 days in Iscove medium supplemented with 15% FCS and 2% methylcellulose, in presence of increasing concentrations of S100A12. (B) The cells were culture for 14 days in presence of 10 pg/ml of S100A8, S100A9, S100A8/A9, or S100A12 in a methylcellulose medium supplemented or not with 50 ng/ml of Stem cell factor, 10 ng/ml of GM-CSF, and 10 ng/ml of IL-3. The results are the number of colonies per 30 mm^2 petri dishes (FIG. 4). As observed in Example III, different S100 proteins have stimulatory activity on bone marrow cells."}, "bone marrow cells": {"tested_on": "bone marrow cells", "assay": "Bone marrow cell proliferation (colonies in methylcellulose, 14 days)", "type": "cell-based, mice", "conditions": "mouse bone marrow cells, FIG. 3", "description": "Bone marrow cells were collected by flushing PBS through incisions made in the femurs of mice, followed by disaggregation. After removing contaminating erythrocytes by hypoosmotic lysis, bone marrow cells were cultured in semi-solid state in Methocult methylcellulose-based media (Stemcell technologies) for 14 days in presence of increasing concentrations of S100A8. At the end of the incubation period, the colonies were numerated. Similar results were obtained with S100A9, S100A8/A9, and S100A12. Results are from one experiment representative of 2 others (FIG. 3). All monomers and heterodimers have shown a growth stimulatory activity on bone marrow cells."}, "leukocytes": {"tested_on": "leukocytes", "assay": "Leukocyte accumulation in the murine air pouch model", "type": "in vivo, mice", "conditions": "air pouch exudate; remainder monocytes", "description": "S100A8, S100A9, and S100A12 induce an inflammatory reaction when injected in the murine air pouch model. In this model, sterile air is injected subcutaneously under the dorsum of mice on days 0 and 3. On day 7, an enclosed environment is formed in which it is possible to inject pro-inflammatory products. Injection of S100A8, S100A9, S100A12, or S100A8/A9 in the air pouch leads to the accumulation within 3 hrs of up to 8×10^6 leukocytes (FIG. 1). Leukocytes recruited consists of neutrophils (80%) and monocytes. The total number of neutrophils circulating in the peripheral blood of a mouse is estimated at 2.5×10^6 cells. […] This is confirmed by i.v. injections of S100 proteins which leads to the release of neutrophils from the bone marrow to the peripheral blood (FIG. 2). […] More importantly, the concentrations at which they exerted these functions are similar to those found in the plasma of patients suffering, for example but not limited to, from AML and CML.\nAir pouches were raised in 10 to 12 week-old CD-1 mice. One ml of murine S100A8 ([…], 5 nM) or phosphate buffered saline (PBS) were injected into the air pouches and the migrating leukocytes were harvested by washing with PBS-EDTA 5 mM at various times. Leukocytes in exudates were counted, centrifuged on microscope slides and stained with Wright-Giemsa. Data represent the mean±SEM of at least 7 mice (FIG. 1)."}},
  "data": [
    {"molecule": "Nc1ccn([C@@H]2CO[C@H](CO)O2)c(=O)n1", "note": "[β-L-OddC, (−)-β-L-Dioxolane-Cytidine]", "values": [
      {"measurement": "activity in patients with advanced leukemia", "setting": "advanced leukemia", "value": "significant activity"}
    ]},
    {"molecule": "B1", "values": [
      {"measurement": "proliferation of bone marrow cells from AML and CML patients", "setting": "[1]", "value": "proliferation also occurs"},
      {"measurement": "proliferation of bone marrow cells", "setting": "bone marrow cells", "value": "increase of proliferation"},
      {"measurement": "neutrophils among leukocytes recruited", "setting": "leukocytes", "value": 80, "unit": "%"}
    ]},
    {"molecule": "B2", "values": [
      {"measurement": "proliferation of bone marrow cells from AML and CML patients", "setting": "[1]", "value": "proliferation also occurs"},
      {"measurement": "proliferation of bone marrow cells", "setting": "bone marrow cells", "value": "increase of proliferation"},
      {"measurement": "neutrophils among leukocytes recruited", "setting": "leukocytes", "value": 80, "unit": "%"}
    ]},
    {"molecule": "B3", "values": [
      {"measurement": "proliferation of bone marrow cells", "setting": "bone marrow cells", "value": "increase of proliferation"},
      {"measurement": "neutrophils among leukocytes recruited", "setting": "leukocytes", "value": 80, "unit": "%"}
    ]}
  ]
}
